Laboratory results: patent publication US20140107043A1 (INSTITUT PASTEUR, published 2014)
Where no end group is shown, it is not given here. [ ]: non-standard residue; d: D form. Phe(4-CH2COOH) = N[C@@H](Cc1ccc(CC(=O)O)cc1)C(=O)O; GABA = NCCCC(=O)O

Key:
Assay in all cases: cell-based or functional assay
[1] = target: envelope gp120 of HIV-1-LAI (X4-tropic strain), on virus (HIV-1 strain LAI, UniProt P03377 33-516, limits assumed)
[2] = target: envelope gp120 of HIV-1/Ba-L (R5-tropic strain), on virus (HIV-1 strain Ba-L)
[3] = target: envelope gp120 of HIV-1 92UG029 (clade A, X4), on virus (HIV-1 strain 92UG029)
[4] = target: envelope gp120 of HIV-1 SF162 (clade B, R5), on virus (HIV-1 strain SF162, UniProt P19550 32-502)
[5] = target: envelope gp120 of HIV-1 92US723 (clade B, R5/X4), on virus (HIV-1 strain 92US723)
[6] = target: envelope gp120 of HIV-1 96USHIPS4 (clade B, R5/X4), on virus (HIV-1 strain 96USHIPS4)
[7] = target: envelope gp120 of HIV-1 92HT599 (clade B, X4), on virus (HIV-1 strain 92HT599)
[8] = target: envelope gp120 of HIV-1 98IN017 (clade C, X4), on virus (HIV-1 strain 98IN017)

EEEEEEEEEEEEE (N-terminal gamma-aminobutyric acid (NH2-(CH2)3-CO-)) [E13 (H-gamma-Abu-(Glu)13-OH)]
> 500 nM: ED50, HIV-1 replication in PBMC [1] | ED70, HIV-1 replication in PBMC [1] | ED90, HIV-1 replication in PBMC [1] | ED50, HIV-1 replication in PBMC [2] | ED70, HIV-1 replication in PBMC [2] | ED90, HIV-1 replication in PBMC [2]

B1: P3YSO3 (H-gamma-Abu-S-YSO3-D-YSO3-S-YSO3-D-YSO3-S-YSO3-D-YSO3-S-OH) (peptide)
peptide: SXDXSXDXSXDXS
modifications: N-terminal gamma-aminobutyric acid (NH2-(CH2)3-CO-); sulfotyrosine (YSO3) at the six X positions of S-X-D-X-S-X-D-X-S-X-D-X-S
> 500 nM: ED50, HIV-1 replication in PBMC [3] | ED70, HIV-1 replication in PBMC [3] | ED90, HIV-1 replication in PBMC [3] | ED50, HIV-1 replication in PBMC [4] | ED70, HIV-1 replication in PBMC [4] | ED90, HIV-1 replication in PBMC [4] | ED50, HIV-1 replication in PBMC [5] | ED70, HIV-1 replication in PBMC [5] | ED90, HIV-1 replication in PBMC [5] | ED50, HIV-1 replication in PBMC [6] | ED70, HIV-1 replication in PBMC [6] | ED90, HIV-1 replication in PBMC [6] | ED50, HIV-1 replication in PBMC [7] | ED70, HIV-1 replication in PBMC [7] | ED90, HIV-1 replication in PBMC [7] | ED50, HIV-1 replication in PBMC [8] | ED70, HIV-1 replication in PBMC [8] | ED90, HIV-1 replication in PBMC [8]

SYDYSYDYSYDYS (N-terminal gamma-aminobutyric acid (NH2-(CH2)3-CO-)) [P3Y (H-gamma-Abu-S-Y-D-Y-S-Y-D-Y-S-Y-D-Y-S-OH)]
> 500 nM: ED50, HIV-1 replication in PBMC [1] | ED70, HIV-1 replication in PBMC [1] | ED90, HIV-1 replication in PBMC [1] | ED50, HIV-1 replication in PBMC [2] | ED70, HIV-1 replication in PBMC [2] | ED90, HIV-1 replication in PBMC [2]

B2: P3pF (H-gamma-Abu-S-pF-D-pF-S-pF-D-pF-S-pF-D-pF-S-OH) (peptide)
peptide: [GABA]S[Phe(4-CH2COOH)]D[Phe(4-CH2COOH)]S[Phe(4-CH2COOH)]D[Phe(4-CH2COOH)]S[Phe(4-CH2COOH)]D[Phe(4-CH2COOH)]S-OH
modifications: N-terminus assumed
SMILES: NCCCC(=O)N[C@@H](CO)C(=O)N[C@@H](Cc1ccc(CC(=O)O)cc1)C(=O)N[C@@H](CC(=O)O)C(=O)N[C@@H](Cc1ccc(CC(=O)O)cc1)C(=O)N[C@@H](CO)C(=O)N[C@@H](Cc1ccc(CC(=O)O)cc1)C(=O)N[C@@H](CC(=O)O)C(=O)N[C@@H](Cc1ccc(CC(=O)O)cc1)C(=O)N[C@@H](CO)C(=O)N[C@@H](Cc1ccc(CC(=O)O)cc1)C(=O)N[C@@H](CC(=O)O)C(=O)N[C@@H](Cc1ccc(CC(=O)O)cc1)C(=O)N[C@@H](CO)C(=O)O
> 500 nM: ED50, HIV-1 replication in PBMC [1] | ED70, HIV-1 replication in PBMC [1] | ED90, HIV-1 replication in PBMC [1] | ED50, HIV-1 replication in PBMC [2] | ED70, HIV-1 replication in PBMC [2] | ED90, HIV-1 replication in PBMC [2]
